# From patent US20090149381
# Target: human recombinant PEDF (pigment epithelium-derived factor) (UniProt P36955)
# Sequence (P36955 20-418): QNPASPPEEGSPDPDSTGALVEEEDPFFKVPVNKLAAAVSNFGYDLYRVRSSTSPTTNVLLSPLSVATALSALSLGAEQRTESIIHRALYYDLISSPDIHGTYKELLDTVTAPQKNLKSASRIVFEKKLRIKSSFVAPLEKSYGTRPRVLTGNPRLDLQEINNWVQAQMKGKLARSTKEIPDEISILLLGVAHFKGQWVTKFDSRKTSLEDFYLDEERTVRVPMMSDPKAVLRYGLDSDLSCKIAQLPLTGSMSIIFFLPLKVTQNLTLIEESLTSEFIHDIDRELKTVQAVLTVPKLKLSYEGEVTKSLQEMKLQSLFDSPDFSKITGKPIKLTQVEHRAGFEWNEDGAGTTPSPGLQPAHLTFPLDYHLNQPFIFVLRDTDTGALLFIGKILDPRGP
# Chain of human recombinant MMP-9 (chain, as listed by the source): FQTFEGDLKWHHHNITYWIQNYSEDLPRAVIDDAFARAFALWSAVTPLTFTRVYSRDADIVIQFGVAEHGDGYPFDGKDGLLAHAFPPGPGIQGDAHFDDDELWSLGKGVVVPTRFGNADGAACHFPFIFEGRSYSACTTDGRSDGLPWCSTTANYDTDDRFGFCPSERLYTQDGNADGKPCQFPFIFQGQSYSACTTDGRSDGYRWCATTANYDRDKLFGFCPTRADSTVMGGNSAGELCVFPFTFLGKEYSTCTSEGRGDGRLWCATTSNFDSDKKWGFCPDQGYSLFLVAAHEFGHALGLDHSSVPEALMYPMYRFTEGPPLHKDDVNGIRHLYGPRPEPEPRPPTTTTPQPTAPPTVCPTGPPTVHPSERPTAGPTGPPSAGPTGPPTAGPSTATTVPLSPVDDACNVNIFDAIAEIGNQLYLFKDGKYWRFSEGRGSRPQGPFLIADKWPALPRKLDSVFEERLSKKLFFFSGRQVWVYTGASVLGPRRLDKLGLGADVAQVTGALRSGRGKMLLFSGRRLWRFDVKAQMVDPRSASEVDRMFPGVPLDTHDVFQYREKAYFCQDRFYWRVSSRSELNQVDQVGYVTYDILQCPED
row,Substance,PEDF fragments observed by SDS-PAGE after protease treatment
1,MMP-7,resulted in the generation of multiple PEDF fragments that were observed by SDS-PAGE. These fragments had estimated relative molecular weights of 44 and 42 KDa
2,activated MMP-2,resulted in the generation of multiple PEDF fragments that were observed by SDS-PAGE. These fragments had estimated relative molecular weights of 44 and 42 KDa
3,human recombinant MMP-9,resulted in the generation of multiple PEDF fragments that were observed by SDS-PAGE. These fragments had estimated relative molecular weights of 44 and 42 KDa
